Numbering of substitutions follows the chain as printed.

Experimental findings from US20240317871A1 (IMMUNOMIC THERAPEUTICS, published 2024) are described below.

The chains are these.
B1: Ab_032 (H5S15-7A8A) (antibody, V domains shown)
VH: QIQLVQSGPELKKPGETVKISCKASGYTFTNYGMNWVKQAPGKGLKWVGWINTYTGEPTYAEDFKGRFAFSLETSASTAYLQINNLKNEDMATYFCARSFYGSEAYWGQGTLVTVSA
VL: QIVLTQSPAIMSASLGEEITLTCSASSSVSFMHWYQQKSGTSPKLLIYSTSNLASGVPSRFSGSGSGTFYSLTISSVEAEDAADYYCHQWSSYLWTFGGGAKLEIK
notes: also called Ab_32
B2: Ab_033 (H5S15-7B8A) (antibody, V domains shown)
VH: B1 VH with E62D
VL: B1 VL
notes: also called Ab_33
B3: Ab_037 (H5S15-13A15A) (antibody, V domains shown)
VH: QVQLKQSGPGLVQPSQSLSITCTVSGFSLTSYGVHWVRQSPGKGLEWLGVIWRGGSTDYNAAFMSRLSITKDNSKSQVFFKMNSLQADDTAIYYCAKTGFAYWGQGTLVTVSA
VL: QIVLTQSPAIMSASPGEKVTMTCSASSSVSYMHWYQQKSGTSPKRWIYDTSKLASGVPARFSGSGSGTSYSLTISSMEAEDAATYYCQQWSSNPLTFGAGTKLELK
notes: also called Ab_37
B4: Ab_023 (H5S14-27A23A) (antibody, V domains shown)
VH: EVKLDETGGGLVQPGRPMKLSCVASGFTFSDYWMNWVRQSPEKGLEWVAQIRNKPYNYETYYSDSVKGRFTISRDDSKSSVYLQMNNLRAEDMGIYYCTWGNYWGQGTTLTVSS
VL: DIKMTQSPSSMYASLGERVTITCKASQDINSYLSWFQQKPGKSPKTLIYRANRLVDGVPSRFSGSGSGQDYSLTISSLEYEDMGIYYCLQYDEFPWTFGGGTKLEIK
notes: also called Ab_23
B5: Ab_020 (H5S14-22A20A) (antibody, V domains shown)
VH: EVQLQQSGPELVKPGASVKMSCKASGYTFTSYVMHWVKQKPGQGLEWIGYINPYNDGTKYNEKFKGKATLTSDKSSSTAYMELSSLTSEDSAVYYCARGIITTVIEPILYAMDYWGQGTSVTVSS
VL: NIVLTQSPASLAVSLGQRATISCRASESVDSYGNSFMHWYQQKPGQPPKLLIYLASNLESGVPARFSGSGSRTDFTLTIDPVEADDAATYYCQQNNEDPYTFGGGTKLEIK
notes: also called Ab_20
B6: Ab_021 (H5S14-29A20A) (antibody, V domains shown)
VH: B5 VH with I105V
VL: B5 VL
notes: also called Ab_21
B7: Ab_024 (H5S15-1A1A) (antibody, V domains shown)
VH: EVQLQQSGAELVKPGASVKLSCTASGFNIKDTYMHWVKQRPEQGLAWIGRIAPANGYTKYDPKFQGKATITTDTSSNTAYLHLSRLTSEDTAVYYCANYFGNTYDWFAFWGQGTLVTVSA
VL: ENVLTQSPAIMSASPGEKVTMTCSAGSSVSYMHWYQQKSSTSPKLWIYDTSKLPSGVPGRFSGSGSGNSYSLTISSMEAEDVATYYCFQGSGFPLTFGSGTKLEIK
notes: also called Ab_24
B8: Ab_017 (H5S14-18A16A) (antibody, V domains shown)
VH: EVQLVETGGGLVQPKGSLKLSCAASGFTFNTNAMNWVRQAPGKGLEWVARIRSKSNNYATYYADSVKDRFTISRDDSQSMLYLQMNNLKTEDTAMYYCVREGGYGNYPYFDYWGQGTTLTVSS
VL: SIVMTQTPKFLLVSAGDRVTITCKASQSVSNDVAWYQQKPGQSPKLLIYYASNRYTGVPDRFTGSGYGTDFTFTISTVQAEDLAVYFCQQDYSSPWTFGGGTKLEIK
notes: also called Ab_17
Note: test concentration or dose not given here.

The target in one assay is T1, human HVEM (human, UniProt Q92956 39-202, limits assumed).
T1 sequence (looked up): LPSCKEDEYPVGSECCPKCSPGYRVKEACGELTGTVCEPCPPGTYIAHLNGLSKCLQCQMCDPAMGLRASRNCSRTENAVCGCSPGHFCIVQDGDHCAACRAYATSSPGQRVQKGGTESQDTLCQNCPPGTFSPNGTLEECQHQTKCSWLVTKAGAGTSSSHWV
Kind of assay: ELISA.
The molecule B1 registered an ELISA signal of 3.04.

Molecule B2 registered an ELISA signal of 3.1.

In turn, B3 returned an ELISA signal of 0.059.

In the case of B4, the ELISA signal amounted to 0.045.

For B5, the ELISA signal was 0.049.

For B6, the ELISA signal was 0.046.

Turning to B7, the ELISA signal was determined as 0.048.

B8 had an ELISA signal of 0.051.

For another assay, the target named is T2, murine HVEM (murine, UniProt Q80WM9 39-206, limits assumed).
T2 construct: also called Mouse
T2 sequence (looked up): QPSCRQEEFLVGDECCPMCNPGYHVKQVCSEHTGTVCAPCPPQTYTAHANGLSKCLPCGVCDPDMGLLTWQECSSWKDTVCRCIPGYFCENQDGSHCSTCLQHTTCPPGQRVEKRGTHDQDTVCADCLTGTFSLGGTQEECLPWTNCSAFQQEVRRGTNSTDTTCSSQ
Briefly: ELISA.
Molecule B1 registered an ELISA signal of 0.045.

For B2, the ELISA signal was 0.043.

The molecule B3 returned an ELISA signal of 0.043.

B4 gave an ELISA signal of 0.042.

B5: the ELISA signal was found to be 0.043.

B6 yielded an ELISA signal of 0.042.

Turning to B7, the ELISA signal worked out at 0.044.

Consider B8, for which the ELISA signal was 0.044.

The next assay has as its target T3, cynomolgus monkey HVEM (cynomolgus monkey, UniProt A0A2K5W0R1 39-203).
T3 sequence: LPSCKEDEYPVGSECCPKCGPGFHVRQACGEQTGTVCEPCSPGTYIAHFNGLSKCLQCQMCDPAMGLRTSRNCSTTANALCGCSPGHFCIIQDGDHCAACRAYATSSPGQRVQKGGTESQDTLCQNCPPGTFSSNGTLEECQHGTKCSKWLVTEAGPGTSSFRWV
Kind of assay: ELISA.
B1 came in with an ELISA signal of 2.87.

For B2, the ELISA signal is 3.02.

B3 returned an ELISA signal of 0.06.

B4: the ELISA signal was 0.057.

With B5, the ELISA signal was 0.064.

For B6, the ELISA signal is 0.061.

Consider B7, for which the ELISA signal stood at 0.063.

With B8, the ELISA signal amounted to 0.06.
